Laboratory results taken from the DeepSol protein solubility set.

Assay: soluble on expression in E. coli; label from the status in PepcDB or PDB records

Q: With “LAVLMVLAVNFGTVTTFAAMSDEAESISVNKPVTDNLSSVNDVKYYEVELPAPGKVNLSFSHANLERTYVYWKVTMFDSVENEVLYFESTGTNTDGKSMSVYLDKGTYYVRVKSEGYWYSTTDYTLCVNYTENKGEYEIEPNYSKELATEISVNKPVIGNHRVKGDTDFYKFTISEPGKVDLSFNHANLERTYVYWKVTMFDSVENIVLYFESTGTNTTGKSMNAYLSEGTYYIRVTTDDYWHSTADYTLCVNYTENQGEYEIEPNNSQDNATLIEVDEPVTGNLRTSSDVDYYRFVMPDSGKVYLGFNHPNLERTYVYWKVSLYDANGNRLYQLNSRGTDTVGKSDEIKIGSGTYYVKVEYEGYWHSSADYSLTVNTVGGIPKVKVFLNGKRIRFDQPPIIQNGRTLVPLRAIFEAMNATVSWDDKTKTVTAKKGDTTIVMTIGNKTMKKNGVAIELDVPPQIVNGRTLVPARAVAESFGAKVDWDGSTRTVTITEGN” as the sequence, how does the “soluble on expression in E. coli” value read?
A: The value was “not soluble”.

Q: With “MGSDKIHHHHHHMKAISNDKPQGVCATDFASVLGEENAVCLWENIEIGQQKRIQQAVTSGKPPTCIVYPRTQQQLAAVIAKAYSHNWRVLPCGSGSKLSWGGLAKGVDVVVGTERINQLIEHAVGDLTVTVEAGMKFSDLQALLAKSRQFLALDPTAPQSATIGGIVATGDTGSLRQRYGSVRDQLLGVTFVRADGEIAKAGGRVVKNVAGYDLMKLLTGSYGTLGFISQLTFRVYPLSEASGTVVLTGSAEAVSQAADILRGSALTPVQADLLSTKLVSSLGLGEGLGLIARFQSISESVKEQSNRVLEVGQKLGLDGAIFADADEASLWQRLQERIHSTATESVITCKIGVLPTAAVDILTQVGLGLIHISSGLGLLQLEDKNQVLKVREQLRSAGSDGTQANSGFLTILEAPMAVKEQVDVWGYNGNALPLMRRIKEQFDSKNILSPGRFVGGI” as the sequence, how does the “soluble on expression in E. coli” value read?
A: Its value is “not soluble”.

Q: For “MGSDKIHHHHHHMSLEHFFRDELTYLRLQGREFAKAHPELTRFLSEQTTDPDVERLLEGFAFLTGSLRAKIEDEFPELTHGLLGMLWPNYLRPVPSMTIMQFSVHPGAIAQPAFVARGCELDSLPIDDVVCHFQTCHDAWIYPADIREIKVQSGNDLSTITLDIGLHGPLSLSDLQLDKLRFYLGGDTYTAYELYFWIASQLSHIELEVDGQRFRQEASVLKTVGFEREDALLPYPGNVYSGYRILQEYFCFPESFLFFQLAGAVWPDLPLTVTEFRLHFCFDRPLPAELKIRPDSFMFNCVPAINLFQHDSEPINLSGRQTDYPLKASYRNADSFEIFSVDKVEGWVEGNSGRSRGIPRTYQPFESFQHQIERAKGRLALYYRIRVREAINGNGFDHMLSFVRGDEQEVIDLDESISVTLTCTNRSRAAQLSVGAICVPTGNSPSFATFRNLVRPTRPLRPAMDGSLHWTLISNLSLNYVSLLRRDALVQILRTYDFPALHDKQAEQASRKRLAGIESIETTPIDRLVQGMPVRGLKSILSVRQSAFSSEGELYLFSTVLAHFFSLYASVNAFHLLEVVNIDNKERYRWPVQIGQHSMM”, which “soluble on expression in E. coli” value is on record?
A: The value was “not soluble”.

Q: Which “soluble on expression in E. coli” value does the source give for “MDQKRLTHLRQLEAESIHIIREVAAEFANPVMLYSIGKDSSVMLHLARKAFYPGTLPFPLLHVDTGWKFREMYAFRDRTANAYGCELLVHKNPEGVAMGINPFVHGSAKHTDIMKTEGLKQALNKYGFDAAFGGARRDEEKSRAKERIYSFRDRFHRWDPKNQRPELWRNYNGQINKGESIRVFPLSNWTEQDIWQYIWLENIDIVPLYLAAERPVLERDGMLMMVDDDRIDLQPGEVIKKRMVRFRTLGCWPLTGAVESHAQTLPEIIEEMLVSTTSERQGRMIDRDQAGSMELKKRQGYF” here?
A: The value was “not soluble”.

Q: Which “soluble on expression in E. coli” value does the source give for “MQRKLNQSLLLAEAYFKRKFTMPEVNYELRGIKAGVAYLQKNEIKFNRTLLQENTDEFIRQVVPHELAHLIVYQMFGRVKPHGKEWQLVMNEIFKLPADTCHQFDIKNVQGKTFEYRCACQTHFLTIRRHNKIMKENIEYLCKKCRGKLVFVDDEELEHHHHHH” here?
A: The value was “not soluble”.

Q: With “MGSDKIHHHHHHMDDTDWIGETFTSTVGWDHLETLVDIGNRMAGSGGERAAAEATRDALAEYTRDARLSEFGIQGWERGDSAVHAGGSPVATQAHECIALPRSPAGEVTGELVDVGHGLPEDFEDADCEGQIVLARSDVPDWYDRYIHRREKYYHAVEAGAAGFIYRNHVDGVLPPTGSVGTADAPIGEIPAIGVASETGARLARRYAGENVTLSVDCETPKATSQNVHAELGPDTDERLLVTSHADAHDIAEGAMDNGAGTAMVVEVARALAGREDELATRVEFVAFGAEEVGLVGSNRLAGETTLDDVTAVLNFDGVVQGRTLKCYTHGFDALTAAAEDVADRLDHPISLTPEQGPHSDHWPFVQRGVPGYHVTSETGGEGRGWGHTHADTLDKLEPRTFREQAVLLTELAVALADDSARPAHKDPAEIANALEAQNLAEGMRITGDWPFGD” as the sequence, how does the “soluble on expression in E. coli” value read?
A: The value was “not soluble”.

Q: With “MTKLALFVRLEAKPGQEAALADFLASALPLANAESGTTAWFALKFGPSTFGVFDAFADEAGRQAHLNGQIAAALMANAATLLSSPPNIEKVELLAAKLPA” as the sequence, how does the “soluble on expression in E. coli” value read?
A: The value was “soluble”.

Q: With “TIPISDKITLYIGRNSANNEKLTFGFAKPDDLWLHARGASGSHCVLKGATMRHTSEIQRAAEIAAWHSSAKHSELVPVICTQKKYLKK” as the sequence, how does the “soluble on expression in E. coli” value read?
A: The value was “not soluble”.

Q: With “MAAFEYKALDAKGKQKKGTIEGDNARQVRQRLKEQGMIPVEVVEAKAKAAKSSGSVGFKRGIKTAELALITRQLSTLVQSGMPLEECLRAVSEQAEKPRIRTMIAAVRSKVTEGYPLADSLGDYPHVFDELFRSMVAAGEKSGHLDTVLERLAEYVENRQKMRSKLLQA” as the sequence, how does the “soluble on expression in E. coli” value read?
A: Its value is “not soluble”.

Q: For “MAAQSDRYDAVLVQYGLRPVRMEQRGKAVKVYTNRGVFALKPLESEQEAAAVWQSLQHGGPRCLPLYLTRRRSLFATEGGRLYYLQAWHDGESKVEKDAADAFFRELARLHRATVRTIEVSEEEAAAYRKQKKDEWQRARTVWEERIERYEAAWYMSPFQLQCCTYFHEVMRAYSFAEERLDVWEETLKETKQWRIAWVHGKARLSHYIPPYWISWERAHWNSPLFDVIAALRFHVQTMPPLGREWLEGMEEYEKELPLSDGERAFLYSHLAEPRGFVRCLERYEAASRNERNEREYVAALQRRYLAFKNMEALVMHLVQRDAARQQEEAVDNEPPSDESSNG”, which “soluble on expression in E. coli” value is on record?
A: Its value is “not soluble”.

Q: For “MISIIYLFIPILLASAVPTSDVLSTRIKALEQVFIVFYCKPSCRFNETQLNSVTIKSFPKCKEVCGIIFIDSETDLTVEQMKKAFEKMRTLKGGFNIENTSLTSLSVFTADKEKGNFNVVGVGNSAAAMTSTKLLAERLKQKNGVYIRNNSQLNDPSVLYDLYLYRDRGIEACDIRIENNPKLEFSCDGGFLHMYNELIVRGNLKDCGCDGEKVNVSNVKEYSKCKTLDSGLNLVNINATFDYDSFLNVTMIRGSIAIRNTNLQSLSFLQNLQTIEYNSDIASVALNVQDNPEMIRLGLPILTKVIDTVEQTSMIQYSTYNKRQYFNFENLHPDFCVTITEIVALLNLGISTENIEAKLCKDPGPLDASFYCTFESMSKLSDTCMYILGDLLIDHEDEKYVSKLGVLQFLFGTLTIRNTNLTDLNFLDQMTYIGALNGNVTYFPVIQIYSNPNLRNVGLNGIMNIITKGNRTAIIQDNHPDLFKSTPCQLFGAYFSNPAMENRVNLTYIGSNCGERVHITSSQSGRISIGLSFSLFVLFWSFKSN”, which “soluble on expression in E. coli” value is on record?
A: The value was “not soluble”.

Q: For “NNINVITDQMGNLDIKSNDNINQNTQNSNVASDLNLLTQNKYLENILMMNTYGVNYDHLFLPQNVAYLAAQQLSNNIMNNRNQINAAYTSQQYPNQSIPIKNIYDQSHLKYQQNSSSWRPPLNNGNIYDGVKSNPMGLHILQNGIDLYTNVDSNSVTSAINFDKYDSIPVSVTGPDYSATNVIENFDELKLDPTIRNNILLASYQRPTPIQKNAIPAILEHRDIMACAQTGSGKTAAFLIPIINHLVCQDLNQQRYSKTAYPKCLILAPTRELAIQILSESQKFSLNTPLRSCVVYGGADTHSQIREVQMGCHLLVATPGRLVDFIEKNKISLEFCKYIVLDEADRMLDMGFEPQIRKIIEESNMPSGINRQTLMFSATFPKEIQKLAADFLYNYIFMTVGRVGSTSDSIKQEIIYMTDVEKLNYLKNIFNTTAPNTLILIFVETKKGADSLARFLLSKGYPVSSIHGDRSQVEREAALSMFRNGQCPILVATAVAARGLDIPNVKHVINYDLPSDIEEYVHRIGRTGRLGNHGRATSFYVDKNNNIAIDLVDLLKEANQIVPQWLSALADELKRNSTMGSNNKRHNQRRYKNGNFGGRDYRQGPSNVNMNSGVNPDYFISGSVAPRHAKLNNGNYFPRSNELHDQHQKQNNNNNQVISNTFHTGISASHLIPGYATFNRQQAPLHFIPHQTNNTQFLSSSGQMALYNRMQNSGHMAPNQRFPNEPIHHQQEQLPITYNFSKNLPYLGQSYSGHNNNNNNNNNTSKINDSDSCYFGNKTPR”, which “soluble on expression in E. coli” value is on record?
A: Its value is “soluble”.

Q: For “MGHHHHHHSHMIFLSTLFWYNKLMNKSTFSLNDTAWVDFYQLQNPRQNENYTFPAIIICPGGGYQHISQRESDPLALAFLAQGYQVLLLNYTVMNKGTNYNFLSQNLEEVQAVFSLIHQNHKEWQINPEQVFLLGCSAGGHLAAWYGNSEQIHRPKGVILCYPVTSFTFGWPSDLSHFNFEIENISEYNISEKVTSSTPPTFIWHTADDEGVPIYNSLKYCDRLSKHQVPFEAHFFESGPHGVSLANRTTAPSDAYCLPSVHRWVSWASDWLERQIKN”, which “soluble on expression in E. coli” value is on record?
A: Its value is “soluble”.

Q: For “MSVEAEKAVLGTFLECPYLLKETVLTETHFSDPKHRKLFAAMKRIAQQGDEPDIVTLSTTEDVADFGGLSYLNEVSAFANETKFDQYEALVLDEWKEREKRRILVVAAQENWDIDKITTALTRLNEGRITDHHDISDLLHEVAEAPWTPTERKMGAPSGISELDKMLNGFNDGDSIILAARPSMGKTDFMIHFAKSVGWHGYLPIVFSLEMAADKIRDRLIGSIGGFNRMKLRNPYHDLSEEQKRMWIEVIGKASETRMQIFDGAGQSIADIRSKIRKAINRFPDRKPVVFIDYLTLIRPERYYGGNMHLQVTEISRAIKETAKEFSCPIITLAQLSRDVEKRSDKRPLMSDIRESGSIEQDADVVIFLYRDSYYNADADPRVAEVIVAKSRNGAVGTVRVSYNRNTGVIQDLYRP”, which “soluble on expression in E. coli” value is on record?
A: The value was “not soluble”.

Q: Which “soluble on expression in E. coli” value does the source give for “MSKISSVLIDLSGTIHIEEFAIPGAQTALELLRQHAKVKFVTNTTKESKRLLHQRLINCGFKVEKEEIFTSLTAARDLIVKNQYRPFFIVDDRAMEDFEGISTDDPNAVVIGLAPEKFNDTTLTHAFRLIKEKKASLIAINKGRYHQTNAGLCLGPGTYVAGLEYSAGVEATIVGKPNKLFFESALQSLNENVDFSSAVMIGDDVNDDALGAIKIGMRAILVKTGKFRDGDELKVKNVANSFVDAVNMIIENKVENG” here?
A: The value was “not soluble”.

Q: Which “soluble on expression in E. coli” value does the source give for “MSLLNRLRAFRERGWREVDAPTYAQAWQRFGGSVATHPLVVEQLAEMAGIPVRYLGWESAGELVAAIPTWGRHLALSKDVLKRRGKKGLYDLGNAELILPVAGDARIALRHAGRYLSALHERNIVTLRPQTEQLAFARAPEDFSKKFRYNQRREVRLVEEAGGQVRQADSFAPAEFAAMYLELFQRRWGFPATGAERMAEVFERLRELLRGSVLLLNDQPIAVQVLYRAEAPGWLSVEYINGGVDPQTREFSPGSVLSYLNTQAAWEDARALGKPLRYSFGRADREYKDRWCHPSPVFQVEGHHHHHH” here?
A: The value was “soluble”.

Q: For “LRDFNYSIAGNLTWARNKVIDLLEPAGEKNNPRQRSTGHSMSQYFGYEALGLFQSDEEANNWPQPQFGKAKAGDIKYKDQNGDGIIDAEDEIAIGRSNYPELVYGLNLNAEWKGFDITFFFQGAALADFYYNGYLAFPYIEGRGGALLEHHIGNTWTPENPKAEFPRLYYGGNANNQLFSSFWMRNGSYLRLKNVEIGYDFKKLLLSKVSEIQGLRLYFSGSNLLTWSQIKYFDPELRSTDGSAYPQMKTFVFGANITF”, which “soluble on expression in E. coli” value is on record?
A: The value was “not soluble”.
